Test [1] concerns the target T1, cynomolgus PD-1 Fc fusion (cynomolgus monkey, UniProt B0LAJ3 25-170).
T1 construct: also called Cyno PD-1 (ELISA)
Description: ELISA on plate bound cynomolgus PD-1 Fc fusion. On the technique in general: In an ELISA, binding on a coated surface is turned into a signal by an enzyme label.

The target in test [2] is T2, human PD-1 expressed on cells (human, UniProt Q15116 25-288). Description: cell-based or functional assay.
The next test addresses T3, human PD-1 Fc fusion (human, UniProt Q15116 25-170).
T3 construct: also called Hu PD-1 (ELISA); not shown: Fc part of the fusion
Description: ELISA on plate bound human PD-1 Fc fusion.

Test [3] concerns the target T2, human PD-1 expressed on cells. Description: flow cytometry on PD-1 expressing Jurkat cells. Background: A flow cytometer gives signals particle by particle.
For test [4] the target is unchanged. Put plainly: flow cytometry on activated human CD4+ T cells. The method, then:
Cells were analyzed using Becton Dickinson FACSCanto flow cytometer. Data was analyzed using BD FACSDiva software (version 8.0.1).

Test [5] has as its target T4, Recombinant extracellular domain of human PD-1 (residues 1-167) (human, UniProt Q15116 25-167).
T4 construct: Bought from a commercial source; also called recombinant soluble PD-1 ECD; PD-1 ECD
Put plainly: SPR, Biacore T200, antibody captured by anti-human Fc, PD-1 ECD as analyte. An excerpt: Unreacted moieties on the biosensor surface were blocked with ethanolamine.

The target in test [6] is T2, human PD-1 expressed on cells. Put plainly: flow cytometry on PD-1 expressing Jurkat cells; samples incubated 30 days at -80, 5, 25 or 40°C. The method, then: (§1) PD-1 expressing Jurkat cells were harvested from flasks and resuspended to 2×10⁶ cells/mL in PBS containing 1% BSA. 100 μL of cells were added to a round bottom 96 well plate containing 100 μL of titrated test antibody or isotype control. Cells were incubated with antibodies at room temperature for 25 minutes and then washed twice with PBS containing 1% BSA. The cell pellet was resuspended in 100 μL of a 1:250 diluted secondary antibody goat anti-human Fab PE. Following 25 minutes incubation at RT, cells were washed twice with PBS containing 1% BSA and resuspended in 200 μL of 1% BSA. Cells were analyzed using Becton Dickinson FACSCanto flow cytometer. Data was analyzed using BD FACSDiva software (version 8.0.1).

The target is the same in test [7]. Put plainly: flow cytometry on PD-1 expressing Jurkat cells; samples stored 30 days at the given temperature or oxidised with 1% hydrogen peroxide or 1% tert-butyl hydroperoxide. The method, then:
as §1
(§2) The antibody variants were screened for binding to human PD-1 transfected Jurkat cells and EC₅₀ values were determined (FIG. 3B).

For test [8] the target is unchanged. Description: flow cytometry on human PD-1 transfected Jurkat cells. Here is the method: as §1, §2

As usually defined, the EC50 is the concentration needed to bring the measured effect to its halfway point. By Kd is commonly meant the equilibrium constant for the complex coming apart. As a reminder, the EC50 (read off the curve) is the concentration giving half of the maximal effect. Low readings indicate an effect from little substance, high ones a need for much substance.

T2 sequence (Q15116 25-288 limits assumed): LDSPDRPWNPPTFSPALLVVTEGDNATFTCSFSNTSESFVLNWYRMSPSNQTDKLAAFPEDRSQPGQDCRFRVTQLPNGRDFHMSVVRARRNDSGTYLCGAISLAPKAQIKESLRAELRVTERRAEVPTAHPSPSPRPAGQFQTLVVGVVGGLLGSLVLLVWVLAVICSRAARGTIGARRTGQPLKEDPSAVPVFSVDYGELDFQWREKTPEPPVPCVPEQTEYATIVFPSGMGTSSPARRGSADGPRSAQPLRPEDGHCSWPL
T1 sequence (B0LAJ3 entry or part of it limits assumed): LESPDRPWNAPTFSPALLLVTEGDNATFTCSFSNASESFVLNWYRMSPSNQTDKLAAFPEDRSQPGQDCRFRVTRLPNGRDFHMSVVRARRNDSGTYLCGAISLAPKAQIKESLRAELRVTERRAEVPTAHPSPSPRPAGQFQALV
T4 sequence (Q15116 25-167): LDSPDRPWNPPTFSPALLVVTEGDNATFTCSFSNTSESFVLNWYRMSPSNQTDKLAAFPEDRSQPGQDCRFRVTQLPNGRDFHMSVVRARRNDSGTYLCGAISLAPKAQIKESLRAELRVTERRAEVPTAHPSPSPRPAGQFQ
T3 sequence (Q15116 25-170 limits assumed): as the sequence (B0LAJ3 entry or part of it limits assumed) above, with E2D, A10P, L19V, A35T, R75Q, A144T counted along it
Description for human PD-1 Fc fusion: Immunolon 4×HB 96 well plates were coated with 1 ug/ml of human PD-1 Fc fusion in at 4° C. overnight. Plates were blocked with PBS containing 1% BSA for 30 minutes at room temperature and then washed three times with PBS containing 0.1% Tween 20 (PBST) using a plate washer. PD-1-coated plates were then incubated with indicated concentrations of antibodies at room temperature (RT) for one hour. Plates were washed four times with PBST and then incubated for 1 hour at room temperature with 100 μL of goat anti-human Fab fragment specific-biotin prepared to a dilution of 1:5000 in PBS containing 1% BSA. Plates were washed five times in PBST and 100 μL of a 1:1000 dilution of Streptavidin-HRP was added to each well and incubated for 30 minutes at RT. Plates were washed five times in PBST and 100 μL of TMB One Component were added to each well and incubated at RT until color developed (approximately 5-10 minutes). Optical density (OD) was read at 650 nm using Spectromax190 (Molecular Devices).

With Nivolumab (antibody), the EC50 in [1] was determined as 0.07 nM.

B1: Humanized 12A11.2b with M99L in CDR-H3 (antibody, V domains shown)
VH: EIQLVQSGAEVKKPGSSVKVSCKASGYTFTHYGMNWVRQAPGQGLEWVGWVNTYTGEPTYADDFKGRLTFTLDTSTSTAYMELSSLRSEDTAVYYCTREGEGLGFGDWGQGTTVTVSS
VL: DVVMTQSPLSLPVTPGEPASISCRSSQSIVHSHGDTYLEWYLQKPGQSPQLLIYKVSNRFSGVPDRFSGSGSGTDFTLKISRVEAEDVGVYYCFQGSHIPVTFGQGTKLEIK
notes: It was detected with anti-human Fab and captured with anti-human IgG Fc; also called Hu12A11.2b4; humanized antibody 12A11.2b M99L
Turning to B1, the “Jurkat NFAT EC50” value in test [2] was determined as 4.5 µg/mL. Further, the 50% effective concentration (EC50) in the test with human PD-1 Fc fusion is 0.197 nM; in test [1], 0.102 nM; in [3] it was 0.045 nM; in test [4], 0.18 nM. Further, the dissociation constant (Kd) in [5] came out at 2.1 nM. Besides, the “EC50 (read off the curve)” value in test [6] was approximately 0.01 µg/mL.

B2: Humanized 12A11.2b with mouse CDRs (antibody, V domains shown)
VH: EIQLVQSGAEVKKPGSSVKVSCKASGYTFTHYGMNWVRQAPGQGLEWVGWVNTYTGEPTYADDFKGRLTFTLDTSTSTAYMELSSLRSEDTAVYYCTREGEGMGFGDWGQGTTVTVSS
VL: DVVMTQSPLSLPVTPGEPASISCRSSQSIVHSHGDTYLEWYLQKPGQSPQLLIYKVSNRFSGVPDRFSGSGSGTDFTLKISRVEAEDVGVYYCFQGSHIPVTFGQGTKLEIK
notes: also called Hu12A11.2b1; M99 parent antibody
With B2, in test [7], the binding result was “binds”.

B3: Humanized 12A11.2b with M99I in CDR-H3 (antibody, V domains shown)
VH: EIQLVQSGAEVKKPGSSVKVSCKASGYTFTHYGMNWVRQAPGQGLEWVGWVNTYTGEPTYADDFKGRLTFTLDTSTSTAYMELSSLRSEDTAVYYCTREGEGIGFGDWGQGTTVTVSS
VL: DVVMTQSPLSLPVTPGEPASISCRSSQSIVHSHGDTYLEWYLQKPGQSPQLLIYKVSNRFSGVPDRFSGSGSGTDFTLKISRVEAEDVGVYYCFQGSHIPVTFGQGTKLEIK
notes: also called Hu12A11.2b2; M99I variant
As to B3, in test [8], the binding result was “binds”.

B4: Humanized 12A11.2b with M99V in CDR-H3 (antibody, V domains shown)
VH: EIQLVQSGAEVKKPGSSVKVSCKASGYTFTHYGMNWVRQAPGQGLEWVGWVNTYTGEPTYADDFKGRLTFTLDTSTSTAYMELSSLRSEDTAVYYCTREGEGVGFGDWGQGTTVTVSS
VL: DVVMTQSPLSLPVTPGEPASISCRSSQSIVHSHGDTYLEWYLQKPGQSPQLLIYKVSNRFSGVPDRFSGSGSGTDFTLKISRVEAEDVGVYYCFQGSHIPVTFGQGTKLEIK
notes: also called Hu12A11.2b3; M99V variant
For B4, in test [8], the binding result was “binds”.

The values are drawn from US20200317808A1 (AbbVie / Abbott, published 2020).
